Among the data in the RNAGym collection of RNA variant scans (doi:10.7554/elife.80360) are self-cleavage values, retold here.

To fix the notation:
B1: Twister Ribozyme (parent)
chain: AACACUGCCAAUGCCGGUCCCAAGCCCGGAUAAAAGUGGAGGGGGCGG

Variants of B1 are the subject of this data set. Briefly: self-cleavage, relative activity (ratio to wild type); higher = more cleavage; co-transcriptional.
Consider AACACUGCCAAGGCCGGUCCCAAGCCCGUAUAAAAGUGGAGGGGGCGG [U12G G29U], for which the self-cleavage stood at 0.823.

AACACUGCCAAUGCCGGUCCCAAGCCCGGAAAAGAGUGGAGGGGGCGG [U31A A34G]: the self-cleavage was found to be 0.853. Regarding AACACUGCCAAUGCCGGUCCCAAGCCCGAAUAAAAGUGGAGGGGGCCG [G29A G47C], the self-cleavage was 0.347. The result for AACGCUGCCCAUGCCGGUCCCAAGCCCGGAUAAAAGUGGAGGGGGCGG [A4G A10C] reads 0.762; that for AACACUGCCAAUGCCGGUCGCAAGCCCGGAUAAAAGGGGAGGGGGCGG [C20G U37G], 0.0665; that for AACACCGCCAAUGCCGGUCCCAAGCCCGGACAAAAGUGGAGGGGGCGG [U6C U31C], 0.712. Consider AACACUGCCAAUGCCGGUCCCAAGCCCGGAUAAAAGUGGAGCGGGCGC [G42C G48C], for which the self-cleavage was found to be 0.606. As to AACACUGCCAGUGCCGGUCCCAAGCCCGGAUAAAAGUGAAGGGGGCGG [A11G G39A], the self-cleavage amounted to 0.477. Regarding AACACUGCCAAUGCCGGUCCCGAACCCGGAUAAAAGUGGAGGGGGCGG [A22G G24A], the self-cleavage is 0.114. On to AACACUGCCAAUGCCGGUCCCAAUCCCGGAUAAAAGUGGAGUGGGCGG [G24U G42U], for which the self-cleavage worked out at 0.0953. Take AACACUGCCAAUGCGGGUCCCAAGCCCGGAUAAAAUUGGAGGGGGCGG [C15G G36U]: the self-cleavage was determined as 0.0831. As to AACACUGCCAAUGCGGGUCCCAAGCCCGGAUCAAAGUGGAGGGGGCGG [C15G A32C], the self-cleavage came out at 0.112. Regarding AACACUGCCAAUGCCCGUCCCAAGCCCGGAUAAAAGUGGAGGGAGCGG [G16C G44A], the self-cleavage came out at 0.803.

As to AAUAUUGCCAAUGCCGGUCCCAAGCCCGGAUAAAAGUGGAGGGGGCGG [C3U C5U], the self-cleavage was found to be 0.315.

Turning to AAUACUGCCAGUGCCGGUCCCAAGCCCGGAUAAAAGUGGAGGGGGCGG [C3U A11G], the self-cleavage stood at 0.438.

Take AACACAGCCAAUGCCGGUCCCAAGCCCGGAUAACAGUGGAGGGGGCGG [U6A A34C]: the self-cleavage was 0.859. As to AACGCUGCCAAUGUCGGUCCCAAGCCCGGAUAAAAGUGGAGGGGGCGG [A4G C14U], the self-cleavage was determined as 0.957. Turning to AACACUGCCAAUACCGGUACCAAGCCCGGAUAAAAGUGGAGGGGGCGG [G13A C19A], the self-cleavage was determined as 0.113.

Consider AACACUGCCAAUGCCCGUCCCAAGCCCGGAUAAAAGUGGAGGGGGUGG [G16C C46U], for which the self-cleavage is 0.78.

For the variant CACACUGCCAAUGCCGGUCCUAAGCCCGGAUAAAAGUGGAGGGGGCGG [A1C C21U], the self-cleavage came to 0.125. On to AACACUGCCAAUGCCGGUCCCAAGCCCAGAUAAGAGUGGAGGGGGCGG [G28A A34G], for which the self-cleavage came out at 0.606. Turning to GACACUGCCAAUGCCGGUCCCAAGCCCGGAUAAAACUGGAGGGGGCGG [A1G G36C], the self-cleavage worked out at 0.227. Next, AACACUGCAAAUGCCGGUCCCAAGCCCGGAUAAAAGAGGAGGGGGCGG [C9A U37A]: 0.233; AACACUGCCAAUGCCGGUCCAAAGCCCGGAUAAAAUUGGAGGGGGCGG [C21A G36U]: 0.0686. On to AACACUGCCAAUGCCGGUCCCAAGCCCGGAUAUAAGUGGAAGGGGCGG [A33U G41A], for which the self-cleavage was found to be 0.472.

For the variant AACACUGCCAAUGCCGGGCCCAAGCCCGGAUAACAGUGGAGGGGGCGG [U18G A34C], the self-cleavage came to 0.0636. On to AACACUGCCAAUGCCGGUCCCAAGCCCGGAUAAAAGUGGAGGGUGCGA [G44U G48A], for which the self-cleavage was found to be 0.717. As to AACACUGCGAAUGCCGGUCCCAAGCCCGGAUAAAAGUUGAGGGGGCGG [C9G G38U], the self-cleavage came out at 0.387. For AACACUGCCAAUGCCAGUCCCAAGACCGGAUAAAAGUGGAGGGGGCGG [G16A C25A], the self-cleavage was 0.117.

With AACACUGCCAAUGCCGGUCCCAAGCCCUGAUAAAAGUGGAGGGCGCGG [G28U G44C], the self-cleavage was 0.782. On to CACACUGCCAAUGCCGGUCCCAAGCCCGGAUAAUAGUGGAGGGGGCGG [A1C A34U], for which the self-cleavage stood at 0.176. Consider AACACUGCCAAUGUCGGUCCCAAGCCCGGAUAAAAGCGGAGGGGGCGG [C14U U37C], for which the self-cleavage came out at 0.602. On to ACCACUGCCAAAGCCGGUCCCAAGCCCGGAUAAAAGUGGAGGGGGCGG [A2C U12A], for which the self-cleavage was determined as 0.0702.

Consider UACACUGCCAAUGCCGGUCCCAAGCCCGGAUAAAAGAGGAGGGGGCGG [A1U U37A], for which the self-cleavage worked out at 0.0677. AACACCGCCAAUGCCGGUCCCAAUCCCGGAUAAAAGUGGAGGGGGCGG [U6C G24U]: the self-cleavage came out at 0.0929. AACACUGCCAAUGCCGGUCCCAAGCCCGGAUAGAAGUGGAGGGGGCGA [A33G G48A]: the self-cleavage is 0.856. AACACUGCCAAUGCCGCUCCCAAGCCCGGAUAAAAGAGGAGGGGGCGG [G17C U37A]: the self-cleavage amounted to 0.0865. For AACACUGCGAAUGCCGGUCCCAAGCCCGGAUAAAAGUGGUGGGGGCGG [C9G A40U], the self-cleavage came out at 0.151. The result for AACACUGCCAAUGCCGGUCCAAAGCCAGGAUAAAAGUGGAGGGGGCGG [C21A C27A] reads 0.0685; that for AACACAGCCAAUGCCGGUCCCAAGCCCGGAUAAAAGUGGAGGGGGCAG [U6A G47A], 0.862. With AACACUUCCAAUGCGGGUCCCAAGCCCGGAUAAAAGUGGAGGGGGCGG [G7U C15G], the self-cleavage worked out at 0.0331. Next, UACACUGCCAAUGCCGGUCCCAAGACCGGAUAAAAGUGGAGGGGGCGG [A1U C25A]: 0.0664.

Regarding AACACUGCCAAUGCCGGUCCCAAGCCCGGAUAAAAGUCGAUGGGGCGG [G38C G41U], the self-cleavage amounted to 0.304.

With AACACGGCCAAUGCCGAUCCCAAGCCCGGAUAAAAGUGGAGGGGGCGG [U6G G17A], the self-cleavage amounted to 0.075. With AACACUGCCAAUGCCCGUCCCAAGCCCGGACAAAAGUGGAGGGGGCGG [G16C U31C], the self-cleavage stood at 0.429. For ACCACUGCCAAUGCCGGUCCUAAGCCCGGAUAAAAGUGGAGGGGGCGG [A2C C21U], the self-cleavage is 0.0368. On to AACAAUGCCAAUGCCGGUCCCAUGCCCGGAUAAAAGUGGAGGGGGCGG [C5A A23U], for which the self-cleavage worked out at 0.074. On to AACACUGCCAAUGCCCGUCCCAAGCCCGGAUAUAAGUGGAGGGGGCGG [G16C A33U], for which the self-cleavage was found to be 0.359.

With AACACUGCCAAUGCCGGUCCCAAGCCCGGAUAUAAGUGGAGGGGGCGG [A33U], the self-cleavage came to 0.998. The result for GACACUGCCAAAGCCGGUCCCAAGCCCGGAUAAAAGUGGAGGGGGCGG [A1G U12A] reads 0.515; that for AACGCUGCCAAUGCCGGUCCCAAGCCCGGAUAAAAGUGGAGGGGGCGG [A4G], 1. The result for AACACUGCCAAGGCCGAUCCCAAGCCCGGAUAAAAGUGGAGGGGGCGG [U12G G17A] reads 0.577. Turning to AACACUGCCAUUGCCGGUCCCAAGCCCGGAUAAAAGUGGAGGGGGCAG [A11U G47A], the self-cleavage was 0.937. Next, AACACUGCCAAUGCCGGUCCCAAGCCCGGAUAUAAGUGCAGGGGGCGG [A33U G39C]: 0.0973.
